Literature values in paper PMC5580235.
Read-outs that look alike come from different tables or passages of the source.

Tests used:
ICAM-1 (Homo sapiens) [1] = biological target: ICAM-1 (Homo sapiens) (UniProt P05362)
ICAM-1 (Homo sapiens) [2] = biological target: ICAM-1 (Homo sapiens) (UniProt P05362); remark: listed apart in the source
ICAM-1 (Homo sapiens) [3] = biological target: ICAM-1 (Homo sapiens) (UniProt P05362); remark: listed apart in the source

Sequence of ICAM-1 (Homo sapiens) (P05362 28-480): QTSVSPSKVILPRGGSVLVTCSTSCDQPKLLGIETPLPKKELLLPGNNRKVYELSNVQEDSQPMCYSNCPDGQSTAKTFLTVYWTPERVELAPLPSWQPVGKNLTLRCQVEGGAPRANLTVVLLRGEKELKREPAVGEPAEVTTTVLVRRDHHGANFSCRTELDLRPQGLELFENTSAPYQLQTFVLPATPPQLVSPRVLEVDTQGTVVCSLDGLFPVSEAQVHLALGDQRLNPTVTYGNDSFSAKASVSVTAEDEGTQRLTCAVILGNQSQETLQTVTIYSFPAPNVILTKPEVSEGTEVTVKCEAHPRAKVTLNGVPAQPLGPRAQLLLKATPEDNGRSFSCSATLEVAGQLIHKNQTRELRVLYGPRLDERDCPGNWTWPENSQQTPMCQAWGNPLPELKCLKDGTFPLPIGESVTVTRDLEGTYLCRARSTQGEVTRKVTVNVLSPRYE
Sequence of LFA-1 (high affinity form) (P20701 26-1090): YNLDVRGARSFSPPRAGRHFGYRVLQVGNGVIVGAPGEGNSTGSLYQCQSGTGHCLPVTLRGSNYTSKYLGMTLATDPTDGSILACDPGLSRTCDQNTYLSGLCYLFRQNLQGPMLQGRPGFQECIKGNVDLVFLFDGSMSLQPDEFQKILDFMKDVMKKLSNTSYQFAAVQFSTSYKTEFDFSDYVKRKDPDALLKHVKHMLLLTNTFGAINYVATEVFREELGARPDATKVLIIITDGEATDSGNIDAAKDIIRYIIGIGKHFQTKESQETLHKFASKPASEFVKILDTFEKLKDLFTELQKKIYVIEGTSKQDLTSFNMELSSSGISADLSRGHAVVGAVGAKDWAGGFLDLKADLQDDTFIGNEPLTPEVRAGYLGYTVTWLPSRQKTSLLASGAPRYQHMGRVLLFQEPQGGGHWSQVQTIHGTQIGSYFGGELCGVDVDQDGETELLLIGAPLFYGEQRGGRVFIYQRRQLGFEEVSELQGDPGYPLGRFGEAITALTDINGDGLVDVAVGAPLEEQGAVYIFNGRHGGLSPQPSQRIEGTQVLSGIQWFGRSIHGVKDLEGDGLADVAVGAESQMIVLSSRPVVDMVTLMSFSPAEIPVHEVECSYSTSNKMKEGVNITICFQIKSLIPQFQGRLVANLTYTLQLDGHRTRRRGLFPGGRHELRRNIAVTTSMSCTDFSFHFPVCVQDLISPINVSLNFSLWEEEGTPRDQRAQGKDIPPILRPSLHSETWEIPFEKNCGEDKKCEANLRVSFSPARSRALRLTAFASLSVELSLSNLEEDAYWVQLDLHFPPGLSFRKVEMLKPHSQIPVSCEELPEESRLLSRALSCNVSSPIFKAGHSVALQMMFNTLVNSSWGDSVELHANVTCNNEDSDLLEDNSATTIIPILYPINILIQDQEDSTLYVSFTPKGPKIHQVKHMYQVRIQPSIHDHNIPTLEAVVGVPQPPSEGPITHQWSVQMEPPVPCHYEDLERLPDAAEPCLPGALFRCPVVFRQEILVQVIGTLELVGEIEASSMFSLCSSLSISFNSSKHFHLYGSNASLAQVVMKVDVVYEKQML
Sequence of LFA-1 (high affinity form) (P05107 23-700, further chain): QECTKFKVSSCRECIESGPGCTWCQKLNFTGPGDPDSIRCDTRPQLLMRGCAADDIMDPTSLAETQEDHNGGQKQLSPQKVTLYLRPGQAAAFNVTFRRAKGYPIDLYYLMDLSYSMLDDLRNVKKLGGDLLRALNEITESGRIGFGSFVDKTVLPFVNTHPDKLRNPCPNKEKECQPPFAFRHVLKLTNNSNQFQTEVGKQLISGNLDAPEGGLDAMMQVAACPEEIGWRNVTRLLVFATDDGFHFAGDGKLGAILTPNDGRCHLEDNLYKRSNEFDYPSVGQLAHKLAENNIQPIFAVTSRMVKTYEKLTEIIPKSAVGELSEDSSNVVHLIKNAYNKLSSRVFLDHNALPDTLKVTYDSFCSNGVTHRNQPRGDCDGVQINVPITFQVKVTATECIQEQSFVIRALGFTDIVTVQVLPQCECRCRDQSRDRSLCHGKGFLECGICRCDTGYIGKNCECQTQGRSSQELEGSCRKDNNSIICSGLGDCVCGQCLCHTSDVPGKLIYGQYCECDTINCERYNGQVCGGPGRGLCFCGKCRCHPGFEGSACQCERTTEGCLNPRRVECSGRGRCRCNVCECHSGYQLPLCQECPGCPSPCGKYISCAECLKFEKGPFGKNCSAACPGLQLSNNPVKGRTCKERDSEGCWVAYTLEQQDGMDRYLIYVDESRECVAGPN
Sequence of LFA-1 (intermediate affinity form) (P20701 26-1090): as the sequence (P20701 26-1090) above
Sequence of LFA-1 (intermediate affinity form) (P05107 23-700, further chain): as the sequence (P05107 23-700, further chain) above
Sequence of LFA-1 (low affinity form) (P20701 26-1090): as the sequence (P20701 26-1090) above
Sequence of LFA-1 (low affinity form) (P05107 23-700, further chain): as the sequence (P05107 23-700, further chain) above

For “LFA-1 (intermediate affinity form) (from UniProt P20701)”, the Kd (ICAM-1 (Homo sapiens) [1]) is given as 15 µM.

For “LFA-1 (low affinity form) (from UniProt P20701)”, the Kd (ICAM-1 (Homo sapiens) [2]) is given as 1500 µM.

In the case of “LFA-1 (high affinity form) (from UniProt P20701)”, the Kd (ICAM-1 (Homo sapiens) [3]) is listed as 0.15 µM.
